Source: publication PMC8896503

Tests used:
Experiment in all cases: PBM
[1] = molecular target: p65 (RELA, NF-kB) (Homo sapiens (THP-1-derived macrophages)) (UniProt Q04206); settings: Nuclear extract PBM (PMA-differentiated THP-1; untreated, LPS 45 min, or IFNg+LPS), antibody detection, buffer, salt, pH and temperature not in the material
[2] = molecular target: p300 complex (Homo sapiens (THP-1-derived macrophages)) (UniProt Q09472); settings: Nuclear extract PBM (PMA-differentiated THP-1; untreated, LPS 45 min, or IFNg+LPS), antibody detection, buffer, salt, pH and temperature not in the material
Chain of p300 complex (Homo sapiens (THP-1-derived macrophages)) (Q09472 whole entry, one chain of several): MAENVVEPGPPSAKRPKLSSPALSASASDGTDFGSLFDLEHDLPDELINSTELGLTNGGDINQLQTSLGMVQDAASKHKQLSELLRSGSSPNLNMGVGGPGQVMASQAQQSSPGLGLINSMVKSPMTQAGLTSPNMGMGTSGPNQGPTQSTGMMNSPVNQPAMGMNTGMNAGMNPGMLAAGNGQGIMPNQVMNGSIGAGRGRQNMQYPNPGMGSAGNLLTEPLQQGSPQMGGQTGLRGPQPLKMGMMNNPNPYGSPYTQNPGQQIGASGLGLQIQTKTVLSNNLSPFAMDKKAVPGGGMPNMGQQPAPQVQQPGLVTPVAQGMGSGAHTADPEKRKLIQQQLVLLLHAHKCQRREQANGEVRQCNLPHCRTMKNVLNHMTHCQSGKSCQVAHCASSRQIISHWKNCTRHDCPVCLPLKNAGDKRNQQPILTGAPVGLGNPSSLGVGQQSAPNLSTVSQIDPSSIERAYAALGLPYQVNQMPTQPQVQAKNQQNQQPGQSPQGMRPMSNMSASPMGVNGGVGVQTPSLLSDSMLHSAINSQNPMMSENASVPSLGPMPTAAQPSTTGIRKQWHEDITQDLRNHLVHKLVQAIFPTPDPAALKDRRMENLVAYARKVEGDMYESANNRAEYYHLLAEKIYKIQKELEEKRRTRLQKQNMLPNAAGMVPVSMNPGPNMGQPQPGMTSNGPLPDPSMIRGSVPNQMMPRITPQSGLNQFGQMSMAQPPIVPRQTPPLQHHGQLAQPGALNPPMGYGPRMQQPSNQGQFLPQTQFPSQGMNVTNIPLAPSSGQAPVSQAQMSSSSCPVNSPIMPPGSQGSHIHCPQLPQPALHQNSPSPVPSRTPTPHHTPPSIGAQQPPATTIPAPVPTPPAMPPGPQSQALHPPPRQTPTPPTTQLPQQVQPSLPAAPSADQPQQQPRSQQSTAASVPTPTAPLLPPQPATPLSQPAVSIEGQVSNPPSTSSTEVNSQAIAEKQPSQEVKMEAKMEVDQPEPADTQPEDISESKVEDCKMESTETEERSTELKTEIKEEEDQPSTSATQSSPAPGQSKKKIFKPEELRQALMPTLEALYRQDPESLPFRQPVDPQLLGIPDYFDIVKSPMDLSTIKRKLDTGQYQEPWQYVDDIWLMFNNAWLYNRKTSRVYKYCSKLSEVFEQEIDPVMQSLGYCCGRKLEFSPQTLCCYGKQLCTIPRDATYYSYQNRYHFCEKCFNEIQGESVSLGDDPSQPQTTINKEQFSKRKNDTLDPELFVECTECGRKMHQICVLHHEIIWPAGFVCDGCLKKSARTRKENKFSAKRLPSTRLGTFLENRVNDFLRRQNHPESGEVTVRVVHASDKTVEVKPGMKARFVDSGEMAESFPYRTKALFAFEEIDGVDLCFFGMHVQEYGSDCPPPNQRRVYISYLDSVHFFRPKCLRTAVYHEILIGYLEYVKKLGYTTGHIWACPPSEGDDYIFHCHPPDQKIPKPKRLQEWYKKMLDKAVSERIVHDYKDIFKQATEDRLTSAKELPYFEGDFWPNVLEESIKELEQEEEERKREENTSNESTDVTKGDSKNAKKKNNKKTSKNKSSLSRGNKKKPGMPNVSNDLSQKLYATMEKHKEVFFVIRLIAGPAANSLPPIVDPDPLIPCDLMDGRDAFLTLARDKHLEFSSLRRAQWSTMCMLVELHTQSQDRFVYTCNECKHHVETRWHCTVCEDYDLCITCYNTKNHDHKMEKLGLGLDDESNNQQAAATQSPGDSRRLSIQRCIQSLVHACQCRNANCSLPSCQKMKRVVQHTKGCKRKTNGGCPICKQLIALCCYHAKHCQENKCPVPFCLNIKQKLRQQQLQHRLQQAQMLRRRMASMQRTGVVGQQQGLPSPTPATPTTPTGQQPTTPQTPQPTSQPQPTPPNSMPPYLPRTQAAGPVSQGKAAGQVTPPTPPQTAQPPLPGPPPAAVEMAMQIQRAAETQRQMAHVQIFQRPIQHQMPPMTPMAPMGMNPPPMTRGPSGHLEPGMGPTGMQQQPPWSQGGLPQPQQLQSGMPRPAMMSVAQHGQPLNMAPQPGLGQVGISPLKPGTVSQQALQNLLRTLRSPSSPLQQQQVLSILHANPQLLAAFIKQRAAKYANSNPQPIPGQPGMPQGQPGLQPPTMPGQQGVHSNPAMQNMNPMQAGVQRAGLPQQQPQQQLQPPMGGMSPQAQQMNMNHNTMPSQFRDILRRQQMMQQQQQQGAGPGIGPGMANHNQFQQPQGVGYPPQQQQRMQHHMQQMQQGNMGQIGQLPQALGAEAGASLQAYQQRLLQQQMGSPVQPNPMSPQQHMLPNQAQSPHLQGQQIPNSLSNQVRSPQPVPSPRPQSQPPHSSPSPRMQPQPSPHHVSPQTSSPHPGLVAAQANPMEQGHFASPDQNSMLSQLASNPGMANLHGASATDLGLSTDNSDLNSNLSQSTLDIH

[3] = molecular target: T1, IRF3 (Homo sapiens (THP-1-derived macrophages)) (UniProt Q14653); settings: LPS 45 min extract; likely tethered by NF-kB; Nuclear extract PBM (PMA-differentiated THP-1; untreated, LPS 45 min, or IFNg+LPS), antibody detection; buffer, salt, pH and temperature not in the material
T1 sequence: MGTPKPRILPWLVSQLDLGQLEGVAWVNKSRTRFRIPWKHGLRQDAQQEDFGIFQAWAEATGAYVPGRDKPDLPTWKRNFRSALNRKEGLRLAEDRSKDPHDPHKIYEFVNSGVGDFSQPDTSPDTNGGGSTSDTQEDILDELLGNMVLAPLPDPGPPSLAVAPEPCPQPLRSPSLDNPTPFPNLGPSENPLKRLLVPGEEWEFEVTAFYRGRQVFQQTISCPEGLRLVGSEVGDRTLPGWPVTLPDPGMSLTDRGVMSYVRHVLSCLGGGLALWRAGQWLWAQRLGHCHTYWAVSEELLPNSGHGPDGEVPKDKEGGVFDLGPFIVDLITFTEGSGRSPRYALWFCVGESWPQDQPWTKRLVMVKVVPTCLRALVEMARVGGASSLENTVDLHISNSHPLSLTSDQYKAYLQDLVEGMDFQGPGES

[4] = molecular target: RBBP5 complex (Homo sapiens (THP-1-derived macrophages)) (UniProt Q15291); settings: Nuclear extract PBM (PMA-differentiated THP-1; untreated, LPS 45 min, or IFNg+LPS), antibody detection, buffer, salt, pH and temperature not in the material
Chain of RBBP5 complex (Homo sapiens (THP-1-derived macrophages)) (Q15291 whole entry, one chain of several): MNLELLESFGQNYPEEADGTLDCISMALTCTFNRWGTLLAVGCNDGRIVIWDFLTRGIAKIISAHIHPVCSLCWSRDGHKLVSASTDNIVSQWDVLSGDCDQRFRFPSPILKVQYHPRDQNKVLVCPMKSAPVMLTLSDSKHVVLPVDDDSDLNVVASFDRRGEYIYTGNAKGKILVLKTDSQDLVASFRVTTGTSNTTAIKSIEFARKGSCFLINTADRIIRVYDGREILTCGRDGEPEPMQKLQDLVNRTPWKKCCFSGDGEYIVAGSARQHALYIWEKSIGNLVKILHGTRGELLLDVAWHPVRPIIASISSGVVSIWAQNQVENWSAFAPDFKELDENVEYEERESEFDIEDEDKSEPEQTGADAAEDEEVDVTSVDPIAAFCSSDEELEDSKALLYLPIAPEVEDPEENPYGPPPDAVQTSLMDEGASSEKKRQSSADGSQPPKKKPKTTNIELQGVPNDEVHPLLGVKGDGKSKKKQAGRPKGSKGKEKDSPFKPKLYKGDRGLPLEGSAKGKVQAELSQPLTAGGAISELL

[5] = molecular target: T2, TBL1XR1 complex (Homo sapiens (THP-1-derived macrophages)) (UniProt Q9BZK7); settings: IFNg+LPS extract, Nuclear extract PBM (PMA-differentiated THP-1; untreated, LPS 45 min, or IFNg+LPS), antibody detection, buffer, salt, pH and temperature not in the material
T2 sequence: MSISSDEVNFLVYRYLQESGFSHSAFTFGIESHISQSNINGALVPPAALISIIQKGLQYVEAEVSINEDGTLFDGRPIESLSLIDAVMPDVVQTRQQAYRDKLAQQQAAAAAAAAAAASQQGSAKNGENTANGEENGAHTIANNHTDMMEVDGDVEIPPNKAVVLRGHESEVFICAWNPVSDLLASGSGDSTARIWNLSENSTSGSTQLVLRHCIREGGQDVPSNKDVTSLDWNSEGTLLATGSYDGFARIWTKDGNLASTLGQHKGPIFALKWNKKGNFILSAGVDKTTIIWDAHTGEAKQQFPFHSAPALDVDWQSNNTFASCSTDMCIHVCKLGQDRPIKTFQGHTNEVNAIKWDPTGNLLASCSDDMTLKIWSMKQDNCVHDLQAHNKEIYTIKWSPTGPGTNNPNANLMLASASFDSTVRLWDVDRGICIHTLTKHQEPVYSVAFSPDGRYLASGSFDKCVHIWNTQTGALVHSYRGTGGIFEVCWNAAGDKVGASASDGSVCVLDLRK

[6] = molecular target: GCN5 complex (Homo sapiens (THP-1-derived macrophages)) (UniProt Q92830); settings: IFNg+LPS extract; Nuclear extract PBM (PMA-differentiated THP-1; untreated, LPS 45 min, or IFNg+LPS), antibody detection; buffer, salt, pH and temperature not in the material
[7] = molecular target: PU.1 (Homo sapiens (THP-1-derived macrophages)) (UniProt P17947); settings: IFNg+LPS extract; Nuclear extract PBM (PMA-differentiated THP-1; untreated, LPS 45 min, or IFNg+LPS), antibody detection; buffer, salt, pH and temperature not in the material
[8] = molecular target: SMARCA4/BRG1 complex (Homo sapiens (THP-1-derived macrophages)) (UniProt P51532); settings: IFNg+LPS extract, Nuclear extract PBM (PMA-differentiated THP-1; untreated, LPS 45 min, or IFNg+LPS), antibody detection, buffer, salt, pH and temperature not in the material
Chain of SMARCA4/BRG1 complex (Homo sapiens (THP-1-derived macrophages)) (P51532 whole entry, one chain of several): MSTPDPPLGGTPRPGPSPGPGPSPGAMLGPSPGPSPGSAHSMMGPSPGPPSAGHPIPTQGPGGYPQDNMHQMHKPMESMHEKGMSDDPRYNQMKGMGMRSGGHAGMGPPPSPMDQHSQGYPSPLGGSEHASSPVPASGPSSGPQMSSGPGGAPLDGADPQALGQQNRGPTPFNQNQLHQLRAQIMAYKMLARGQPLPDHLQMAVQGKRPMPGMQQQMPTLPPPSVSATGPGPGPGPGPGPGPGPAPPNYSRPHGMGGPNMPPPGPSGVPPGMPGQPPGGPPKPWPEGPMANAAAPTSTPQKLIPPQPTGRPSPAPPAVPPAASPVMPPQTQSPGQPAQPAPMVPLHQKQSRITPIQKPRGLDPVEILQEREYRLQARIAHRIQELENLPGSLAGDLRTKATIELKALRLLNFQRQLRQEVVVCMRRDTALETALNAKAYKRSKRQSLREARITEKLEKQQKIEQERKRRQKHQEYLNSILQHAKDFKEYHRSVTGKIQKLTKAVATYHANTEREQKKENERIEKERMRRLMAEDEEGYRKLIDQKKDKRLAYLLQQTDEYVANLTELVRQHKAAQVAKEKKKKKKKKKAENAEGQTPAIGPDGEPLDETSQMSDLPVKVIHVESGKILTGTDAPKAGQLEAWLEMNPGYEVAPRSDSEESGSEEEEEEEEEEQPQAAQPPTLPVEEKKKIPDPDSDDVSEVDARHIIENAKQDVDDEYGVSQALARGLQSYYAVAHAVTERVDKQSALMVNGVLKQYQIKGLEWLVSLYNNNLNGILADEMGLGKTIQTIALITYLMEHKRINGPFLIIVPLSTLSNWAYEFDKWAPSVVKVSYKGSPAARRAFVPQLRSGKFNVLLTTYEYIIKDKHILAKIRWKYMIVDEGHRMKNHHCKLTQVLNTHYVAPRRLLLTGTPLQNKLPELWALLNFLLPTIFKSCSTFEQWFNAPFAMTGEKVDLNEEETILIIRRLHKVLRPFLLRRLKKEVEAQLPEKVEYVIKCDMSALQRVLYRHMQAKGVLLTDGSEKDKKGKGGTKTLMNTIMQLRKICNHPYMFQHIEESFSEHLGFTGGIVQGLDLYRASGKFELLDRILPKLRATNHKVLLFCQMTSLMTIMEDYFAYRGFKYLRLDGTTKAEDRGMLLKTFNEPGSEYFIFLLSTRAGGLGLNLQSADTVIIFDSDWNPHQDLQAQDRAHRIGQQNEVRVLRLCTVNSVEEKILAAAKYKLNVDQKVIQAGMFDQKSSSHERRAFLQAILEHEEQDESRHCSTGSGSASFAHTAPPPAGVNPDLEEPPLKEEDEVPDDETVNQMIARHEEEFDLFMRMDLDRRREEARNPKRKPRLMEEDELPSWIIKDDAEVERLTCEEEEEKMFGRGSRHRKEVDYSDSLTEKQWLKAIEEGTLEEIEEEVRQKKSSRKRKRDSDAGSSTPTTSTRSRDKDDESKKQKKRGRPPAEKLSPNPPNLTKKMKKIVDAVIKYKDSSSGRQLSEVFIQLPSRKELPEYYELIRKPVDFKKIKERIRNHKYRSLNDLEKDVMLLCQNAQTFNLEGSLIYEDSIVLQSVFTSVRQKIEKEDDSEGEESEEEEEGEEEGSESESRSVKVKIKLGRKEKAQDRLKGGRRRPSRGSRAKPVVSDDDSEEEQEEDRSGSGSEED

[9] = not recruited or below detection

Chain of p65 (RELA, NF-kB) (Homo sapiens (THP-1-derived macrophages)) (Q04206 whole entry): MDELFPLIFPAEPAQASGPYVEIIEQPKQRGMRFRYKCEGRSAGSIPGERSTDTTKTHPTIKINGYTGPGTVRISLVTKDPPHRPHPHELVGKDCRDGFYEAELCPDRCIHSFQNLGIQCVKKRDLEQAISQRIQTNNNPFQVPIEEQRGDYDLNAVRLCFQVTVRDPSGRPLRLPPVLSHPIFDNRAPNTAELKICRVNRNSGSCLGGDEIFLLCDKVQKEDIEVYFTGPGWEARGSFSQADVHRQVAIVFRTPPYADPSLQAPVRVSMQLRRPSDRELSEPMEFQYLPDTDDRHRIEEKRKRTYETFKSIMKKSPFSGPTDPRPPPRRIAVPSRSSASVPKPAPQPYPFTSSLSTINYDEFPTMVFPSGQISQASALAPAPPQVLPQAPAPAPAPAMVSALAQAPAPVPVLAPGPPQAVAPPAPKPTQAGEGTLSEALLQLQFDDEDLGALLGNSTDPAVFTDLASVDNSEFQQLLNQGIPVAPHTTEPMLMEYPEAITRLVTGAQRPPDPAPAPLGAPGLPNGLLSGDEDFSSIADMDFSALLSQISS

## GCCTAGCAAAACCTGCTGGCTGTTCCTGGGGACTAGGTCTTGATTCGCTTGACGCTGCTG (double strand) [CXCL10 tile 2]
[1]; LPS 45 min extract
  binding signal: -0.374 Z score

## GCCTAGCCATGTTGCAGACTCGAAGGTATTATCTAGGTCTTGATTCGCTTGACGCTGCTG (double strand) [CXCL10 tile 8]
[1]; LPS 45 min extract
  binding signal: 0.079 Z score

## GCCTAGCCTGCTGGCTGTTCCTGGGGAAGTCCCTAGGTCTTGATTCGCTTGACGCTGCTG (double strand) [CXCL10 tile 3]
[1]; LPS 45 min extract
  binding signal: 20.9 Z score
[1]; untreated extract
  binding signal: 7.49 Z score
[2]; LPS 45 min extract, replicate 1 (replicate 2: 3.237)
  binding signal: 3.75 Z score
[2]; untreated extract, replicate 1 (replicate 2: 0.462)
  binding signal: -0.59 Z score
[3]
  binding signal: 3.17 Z score
[4]; LPS 45 min extract
  binding signal: -1.16 Z score
[4]; untreated extract
  binding signal: -0.828 Z score

## GCCTAGTATTATTTATTGTAGCCTCCAAGTTACTAGGTCTTGATTCGCTTGACGCTGCTG (double strand) [CXCL10 tile 12]
[1]; LPS 45 min extract
  binding signal: -0.454 Z score

## GCCTAGTTGCAGACTCGAAGGTATTATTTATTCTAGGTCTTGATTCGCTTGACGCTGCTG (double strand) [CXCL10 tile 9]
[1]; LPS 45 min extract
  binding signal: 0.218 Z score

## GCCTAGTGGGGAAGTCCCATGTTGCAGACTCGCTAGGTCTTGATTCGCTTGACGCTGCTG (double strand) [CXCL10 tile 6]
[1]; LPS 45 min extract
  binding signal: 14.3 Z score

## GAAATTTAGAACAGAAAGTGAAACCA (double strand) [rs10833823 REF (A)]
[4]; IFNg+LPS extract
  binding signal: 10.6 Z score
[5]
  binding signal: 9.71 Z score
[6]
  binding signal: 1.54 Z score

## GCCTAGGACTCGAAGGTATTATTTATTGTAGCCTAGGTCTTGATTCGCTTGACGCTGCTG (double strand) [CXCL10 tile 10]
[1]; LPS 45 min extract
  binding signal: -0.567 Z score

## GAAATTTAGAACGGAAAGTGAAACCA (double strand) [rs10833823 non-REF (G)]
[4]; IFNg+LPS extract
  binding signal: 15.8 Z score
[5]
  binding signal: 28.5 Z score
[6]
  binding signal: 3.36 Z score

## TGATGCAATGAAGTGGGGAAGTATTA (double strand) [rs11950944 REF (G)]
[2]; IFNg+LPS extract, not recruited or below detection
  binding signal: -0.13 Z score
[7]
  binding signal: 4.04 Z score
[8]; [9]
  binding signal: -0.38 Z score
[5]; [9]
  binding signal: 0.37 Z score

## GCCTAGTGGCTGTTCCTGGGGAAGTCCCATGTCTAGGTCTTGATTCGCTTGACGCTGCTG (double strand) [CXCL10 tile 4]
[1]; LPS 45 min extract
  binding signal: 15 Z score

## GCCTAGAAGTCCCATGTTGCAGACTCGAAGGTCTAGGTCTTGATTCGCTTGACGCTGCTG (double strand) [CXCL10 tile 7]
[1]; LPS 45 min extract
  binding signal: 0.56 Z score

## GCCTAGGAAGGTATTATTTATTGTAGCCTCCACTAGGTCTTGATTCGCTTGACGCTGCTG (double strand) [CXCL10 tile 11]
[1]; LPS 45 min extract
  binding signal: -1.38 Z score

## GCCTAGGTTCCTGGGGAAGTCCCATGTTGCAGCTAGGTCTTGATTCGCTTGACGCTGCTG (double strand) [CXCL10 tile 5]
[1]; LPS 45 min extract
  binding signal: 8.52 Z score

## GCCTAGCTTAGCAAAACCTGCTGGCTGTTCCTCTAGGTCTTGATTCGCTTGACGCTGCTG (double strand) [CXCL10 tile 1]
[1]; LPS 45 min extract
  binding signal: 0.046 Z score

## TGATGCAATGAAATGGGGAAGTATTA (double strand) [rs11950944 non-REF (A)]
[2]; IFNg+LPS extract
  binding signal: 2.36 Z score
[7]
  binding signal: 5.99 Z score
[8]
  binding signal: 2.99 Z score
[5]
  binding signal: 2.61 Z score
